From patent EP4800035A1 (National Cancer Center, dated 2025)

B1: clone 577 chimeric antibody in the IgG1 format (antibody)
heavy: not shown
light: ETTVTQSPASLSMAMGEKVTIRCMTSTDINDDMNWYQQKPGEPPKLLISEGNTLRPGVPSRFSSSGYSTDFFFTIEYMLSEDVADYFCLQTDNLPLTFGAGTKLELRRTVAAPSVFIFPPSDEQLKSGTASVVCLLNNFYPREAKVQWKVDNALQSGNSQESVTEQDSKDSTYSLSSTLTLSKADYEKHKVYACEVTHQGLSSPVTKSFNRGEC
B2: clone 577 chimeric antibody in the IgG4 format (antibody)
heavy: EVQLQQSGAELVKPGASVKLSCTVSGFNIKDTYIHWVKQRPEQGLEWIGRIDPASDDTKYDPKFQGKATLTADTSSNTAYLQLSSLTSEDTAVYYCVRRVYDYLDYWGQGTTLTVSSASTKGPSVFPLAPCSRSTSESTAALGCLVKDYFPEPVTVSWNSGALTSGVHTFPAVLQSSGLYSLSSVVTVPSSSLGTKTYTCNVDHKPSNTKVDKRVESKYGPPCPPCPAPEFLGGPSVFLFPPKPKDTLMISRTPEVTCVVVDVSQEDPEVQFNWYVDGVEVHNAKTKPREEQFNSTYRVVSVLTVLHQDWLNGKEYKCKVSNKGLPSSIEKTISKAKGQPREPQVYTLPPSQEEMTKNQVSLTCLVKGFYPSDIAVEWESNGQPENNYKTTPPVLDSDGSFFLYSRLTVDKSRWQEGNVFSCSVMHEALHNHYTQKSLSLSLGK
light: B1 light
B3: clone 2D5 chimeric antibody in the IgG1 format (antibody)
heavy: not shown
light: DIVMTQSHKFMSTSVGDRVSITCKASQDVGIVVAWYQQKPGQSPKLLIYWASTRHTGVPDRFTGSGSGTDFTLTISNVQSEDLADYFCQQYSSYPLTFGAGTKLELRRTVAAPSVFIFPPSDEQLKSGTASVVCLLNNFYPREAKVQWKVDNALQSGNSQESVTEQDSKDSTYSLSSTLTLSKADYEKHKVYACEVTHQGLSSPVTKSFNRGEC
notes: also called anti-human IL-7R antibody clone 2D5 (IgG1 format)
B4: clone 2D5 chimeric antibody in the IgG4 format (antibody)
heavy: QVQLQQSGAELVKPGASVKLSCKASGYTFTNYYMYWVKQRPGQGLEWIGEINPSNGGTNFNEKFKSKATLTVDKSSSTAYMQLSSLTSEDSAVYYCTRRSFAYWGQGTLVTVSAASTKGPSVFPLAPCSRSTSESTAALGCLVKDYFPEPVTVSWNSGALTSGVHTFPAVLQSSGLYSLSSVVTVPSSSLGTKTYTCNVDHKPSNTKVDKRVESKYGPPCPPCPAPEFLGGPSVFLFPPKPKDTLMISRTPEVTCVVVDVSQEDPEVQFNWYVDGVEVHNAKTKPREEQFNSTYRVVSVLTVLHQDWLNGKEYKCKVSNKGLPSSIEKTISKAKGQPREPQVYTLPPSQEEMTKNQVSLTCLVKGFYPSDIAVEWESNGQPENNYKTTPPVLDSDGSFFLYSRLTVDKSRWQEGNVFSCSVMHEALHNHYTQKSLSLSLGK
light: B3 light
notes: also called anti-human IL-7R antibody clone 2D5 (IgG4 format)
B5: clone 24 chimeric antibody in the IgG1 format (antibody)
heavy: not shown
light: QIVLTQSPAIMSSFPGEKVTMTCSASSSVNYIHWYQQKSGTSPKRLIYDTSKLASGVPPRFSGSGSGTSYSLTISSMEAEDAATYYCQQWSRNPLTFGAGTKLELRRTVAAPSVFIFPPSDEQLKSGTASVVCLLNNFYPREAKVQWKVDNALQSGNSQESVTEQDSKDSTYSLSSTLTLSKADYEKHKVYACEVTHQGLSSPVTKSFNRGEC
notes: also called anti-human IL-7R antibody clone 24 (IgG1 format)
B6: clone 24 chimeric antibody in the IgG4 format (antibody)
heavy: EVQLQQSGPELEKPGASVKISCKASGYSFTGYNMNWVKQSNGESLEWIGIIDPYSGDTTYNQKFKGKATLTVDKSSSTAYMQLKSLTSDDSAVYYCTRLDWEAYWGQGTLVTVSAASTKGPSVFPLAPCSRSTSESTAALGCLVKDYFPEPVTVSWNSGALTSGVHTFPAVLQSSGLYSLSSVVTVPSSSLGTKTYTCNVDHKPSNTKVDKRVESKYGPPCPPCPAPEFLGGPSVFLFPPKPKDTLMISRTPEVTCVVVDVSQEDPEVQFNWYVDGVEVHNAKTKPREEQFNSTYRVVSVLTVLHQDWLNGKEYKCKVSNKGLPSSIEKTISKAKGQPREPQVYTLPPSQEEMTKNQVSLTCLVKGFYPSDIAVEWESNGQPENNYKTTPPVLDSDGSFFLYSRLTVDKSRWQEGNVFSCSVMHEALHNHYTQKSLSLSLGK
light: B5 light
notes: also called anti-human IL-7R antibody clone 24 (IgG4 format)

Experiments:
[1] = target: T1, human interleukin-7 receptor (IL-7R) (human, UniProt P16871 21-459); experiment: flow cytometry on NALM6 and REH cells (FIG. 5, human chimeric clone)
T1 construct: whole, on cells; Endogenous receptor on NALM6 and REH cells in flow cytometry; also called IL-7Ralpha; IL-7 Ralpha
T1 sequence (looked up): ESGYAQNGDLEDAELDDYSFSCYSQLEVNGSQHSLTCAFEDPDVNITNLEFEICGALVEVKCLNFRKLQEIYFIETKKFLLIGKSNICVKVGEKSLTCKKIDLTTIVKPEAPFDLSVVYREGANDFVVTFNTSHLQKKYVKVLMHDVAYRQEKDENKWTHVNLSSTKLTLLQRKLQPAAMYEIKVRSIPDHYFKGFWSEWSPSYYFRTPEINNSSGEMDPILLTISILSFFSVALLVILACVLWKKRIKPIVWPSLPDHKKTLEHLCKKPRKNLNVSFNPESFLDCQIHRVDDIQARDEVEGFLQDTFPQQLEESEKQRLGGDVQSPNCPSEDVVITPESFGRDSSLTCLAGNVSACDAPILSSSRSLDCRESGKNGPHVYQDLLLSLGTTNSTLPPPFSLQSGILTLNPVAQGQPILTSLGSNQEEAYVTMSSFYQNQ

[2] = target: T1, human interleukin-7 receptor (IL-7R); experiment: flow cytometry on NALM6 and REH cells (FIG. 2)

Binder | binding result [1] | binding result [2]
B1 | binds | –
B2 | – | binds
B3 | – | binds
B4 | – | binds
B5 | – | binds
B6 | – | binds
